{
  "source": "paper PMC10178846",
  "about": "“CERT1 mutations perturb human development by disrupting sphingolipid homeostasis” (The Journal of Clinical Investigation, 2023)",
  "key": {"[1]": {"molecular_target": "the molecule itself", "experiment": "SEC-MALS; size-exclusion chromatography coupled to multiangle light scattering of recombinant CERT constructs; absolute molar mass"}, "[2]": {"molecular_target": "the molecule itself", "experiment": "native MS; native MS of purified recombinant CERT 151-309 WT; deconvoluted mass spectrum"}},
  "note": "“And” between values parts separate entries of the source, which are not always exact repeats. Equal values may be shown once.",
  "data": [
    {"protein": "CERT construct encompassing the PH plus CCD domains (aa 1-341) (domain or fragment, human, UniProt Q9Y5P4-1 1-341, looked up, human CERT (CERT1 isoform 1, CERTL), residues 1-341, PH plus CCD domains) MSDNQSWNSSGSEEDPETESGPPVERCGVLSKWTNYIHGWQDRWVVLKNNALSYYKSEDETEYGCRGSICLSKAVITPHDFDECRFDISVNDSVWYLRAQDPDHRQQWIDAIEQHKTESGYGSESSLRRHGSMVSLVSGASGYSATSTSSFKKGHSLREKLAEMETFRDILCRQVDTLQKYFDACADAVSKDELQRDKVVEDDEDDFPTTRSDGDFLHSTNGNKEKLFPHVTPKGINGIDFKGEAITFKATTAGILATLSHCIELMVKREDSWQKRLDKETEKKRRTEEAYKNAMTELKKKSHFGGPDYEEGPNSLINEEEFFDAVEAALDRQDKIEEQSQ", "values": [
      {"measurement": "stoichiometry N", "setting": "[1]", "value": 2}
    ]},
    {"protein": "ceramide transporter CERT, recombinant full-length (CERT1 isoform 1, CERTL) (natural protein, human, UniProt Q9Y5P4-1 1-624, looked up, human ceramide transporter CERT (CERT1), isoform 1 (CERTL), NP_005704; full-length recombinant protein; also called CERT WT; source: recombinant) MSDNQSWNSSGSEEDPETESGPPVERCGVLSKWTNYIHGWQDRWVVLKNNALSYYKSEDETEYGCRGSICLSKAVITPHDFDECRFDISVNDSVWYLRAQDPDHRQQWIDAIEQHKTESGYGSESSLRRHGSMVSLVSGASGYSATSTSSFKKGHSLREKLAEMETFRDILCRQVDTLQKYFDACADAVSKDELQRDKVVEDDEDDFPTTRSDGDFLHSTNGNKEKLFPHVTPKGINGIDFKGEAITFKATTAGILATLSHCIELMVKREDSWQKRLDKETEKKRRTEEAYKNAMTELKKKSHFGGPDYEEGPNSLINEEEFFDAVEAALDRQDKIEEQSQSEKVRLHWPTSLPSGDAFSSVGTHRFVQKPYSRSSSMSSIDLVSASDDVHRFSSQVEEMVQNHMTYSLQDVGGDANWQLVVEEGEMKVYRREVEENGIVLDPLKATHAVKGVTGHEVCNYFWNVDVRNDWETTIENFHVVETLADNAIIIYQTHKRVWPASQRDVLYLSVIRKIPALTENDPETWIVCNFSVDHDSAPLNNRCVRAKINVAMICQTLVSPPEGNQEISRDNILCKITYVANVNPGGWAPASVLRAVAKREYPKFLKRFTSYVQEKTAGKPILF", "values": [
      {"measurement": "stoichiometry N", "setting": "[1]", "value": 2}
    ]},
    {"protein": "CERT central core domain (CCD), purified recombinant CERT 151-309 WT (domain or fragment, human, UniProt Q9Y5P4-1 151-309, looked up, human CERT (CERT1 isoform 1, CERTL), residues 151-309, central core domain; Theoretical MW is printed as 18.5 kDa; also called CERT CCD; source: recombinant, purified) FKKGHSLREKLAEMETFRDILCRQVDTLQKYFDACADAVSKDELQRDKVVEDDEDDFPTTRSDGDFLHSTNGNKEKLFPHVTPKGINGIDFKGEAITFKATTAGILATLSHCIELMVKREDSWQKRLDKETEKKRRTEEAYKNAMTELKKKSHFGGPDY", "values": [
      {"measurement": "stoichiometry N", "setting": "[2]", "value": "2 and 4"}
    ]}
  ]
}
